Assays:
[1] = system: BAD phosphorylation in COS-7 cells; assay: BAD phosphorylation in COS-7 cells (western blot band-shift); assay type: cell-based; conditions: anti-HA western blot
Source text: Mouse FL5.12 cells were then transfected with the expression vector encoding the shorter murine BAD of SEQ ID NO:3 or one of the three BAD mutants. Total mRNA was isolated from the transfected FL5.12 cells, and reverse transcribed into cDNA. The cDNA was then subcloned into the expression vector pcDNA3 so that the amino acid sequence of the BAD or mutant BAD, encoded by the subcloned cDNA, was in-frame and operably linked to an N-terminal hemagglutinin (“HA”) epitope encoded by the expression vector. The expression vectors encoding the HA-tagged shorter murine BAD and mutant BAD were expressed in COS-7 cells. Whole cell lysates (“WCL”) were then prepared from the COS-7 cells expressing the polypeptides. The phosphorylation of the shorter murine BAD of SEQ ID NO:3 and mutant BAD were detected by a western blot of the WCL, probed with an anti-HA antibody (“anti-HA antibody”). […] Of note, each of the BAD mutants resolved as a doublet on a 16% SDS-PAGE, even though in the amino acid sequence of each of the BAD mutants one or both of the serines corresponding to Ser112 and Ser136 were mutated, i.e., substituted with alanine. […]

[2] = system: BAD Ser155 phosphorylation in HeLa cells; assay: BAD phosphorylation in HeLa cells (western blot band-shift / anti-phospho-Ser155 antibody); assay type: cell-based, human; conditions: HeLa cells
Procedure: A mammalian expression vector encoding mutant HA-BAD S155A, derived from the shorter murine BAD of SEQ ID NO:3, was constructed. HA-BAD S155A has an amino acid sequence wherein the serine at a position corresponding to Ser155 is substituted with alanine. A western blot was performed on WCL prepared from cells expressing the shorter murine BAD (SEQ ID NO:3), HA-BAD S112A, HA-BAD S136A, or HA-BAD S155A, and probed with anti-HA antibody.
A western blot analysis, probed with anti-HA antibody, was performed on lysates produced from the Forskolin treated and untreated (control) cells to determine whether Forskolin could induce the phosphorylation BAD or mutant BAD.
HeLa cells transiently expressing HA-BAD, HA-BAD S155A, HA-BAD S112A/S136A, or HA-BAD S112A/S136A/S155A were treated with Forskolin or a buffer control.
The HA-BAD S112A/S136A double mutant was transiently expressed in HeLa cells, and transfected cell cultures were treated with each of the GPCR ligands, individually and as a group. A western blot analysis, probed with anti-HA antibody, was performed on lysates produced from the treated and untreated (negative control) cells. […] Forskolin (FK) and no treatment (−) were positive and negative controls, respectively (FIG. 6(a), […], respectively).
Non-transfected HeLa cells were treated with Forskolin or L-epinephrine, followed by western blot analysis of cell lysates using anti-BAD antibodies.
Transformants were treated with L-epinephrine, then lysed and subjected to anti-HA western blot analysis.
To further test whether phosphorylation of Ser155 is dependent on the PI 3-kinase/Akt pathway, HeLa cells were transfected with the mutant HA-BAD S155A and pretreated with Wortmannin, an inhibitor of PI 3-kinase. These cells were then stimulated with epidermal growth factor (EGF), lysed and analyzed by western blot analysis.
For immunoprecipitation of all HA-BAD species, 1 μg of the anti-HA antibody was added to the cell lysates, and incubated at 4° C. for one hour. Protein G agarose (Pierce) was then added (50 μl/fraction of 50% slurry) and followed by a one hour incubation at 4° C. Beads were washed with RIPA buffer, boiled in loading buffer (2% SDS, 10% glycerol, 5% β-ME, 60 mM Tris, pH 6.8, 0.002% Bromophenol Blue) and loaded onto polyacrylamide gels. After electrophoresis, proteins were transferred to nitrocellulose membranes, and blots blocked in western wash buffer (40 mM Tris, pH 8.0, 150 mM NaCl, 0.2% NP-40) with 5% BSA for one hour at room temperature. Blots were incubated with primary antibody diluted in western wash buffer with 3% BSA at room temperature for 1–2 hours, washed with western wash buffer and incubated with secondary HRP-coupled antibody diluted in western wash buffer with 1.5% BSA, and washed extensively. Polypeptides were detected with the ECL chemiluminescence according to the manufacturers instructions (Amersham).

HeLa cells [3] = assay: Beta-gal ELISA apoptosis assay in transfected HeLa cells; assay type: cell-based, human; conditions: HeLa cells, 24 hours post-transfection
Procedure: Because BAD Ser155 phosphorylation, like Ser136 phosphorylation, prevents BAD from binding to Bcl-XL (FIG. 1), it was possible that by analogy, Ser155 dephosphorylation promotes cell death. To test this idea, HeLa cells were co-transfected with BAD or various BAD serine mutants and a β-gal reporter plasmid. Twenty-four hours post-transfection, cell viability was analyzed by β-gal ELISA.
To test this idea, HeLa cells were again co-transfected with BAD or various BAD serine mutants and a β-gal reporter plasmid. Forskolin was then added to half of the cultures while the other half was left untreated. Beta-gal ELISAs were performed 24 hours post transfection. […] Thus, phosphorylation of Ser155 rescues cells from BAD-induced apoptosis, while substitution of Ser155 with a nonphosphorylatable residue results in increased cell death and the failure of cells to be protected from induced PKA activity.
Beta-gal ELISA assays were performed using the β-gal ELISA system from Boehringer Mannheim, according to manufacture's instructions. Cells were transfected with BAD (or BAD mutant) and β-gal in a ratio of 5:1. The transfected cells were trypsinized and distributed into 96-well tissue culture plates. Twenty-four hours after transfection, cell extracts were obtained by lysing the cells in lysis buffer. Cell extracts (200 μl) were then added to anti-β-gal-coated microtiter plates (MTP). The MTPs were foil-covered and incubated for one hour at 37° C. Solutions were then decanted and the MTPs were washed, followed by the addition of 200 μl of anti-β-gal-DIG working solution, and incubation for an additional hour as described above. Solutions were again decanted, the MTPs washed and 200 μl of DIG-POD working solution were added. The MTPs were incubated for another hour at 37° C., the solution decanted, and the wells washed. 200 μl of substrate with enhancer were added to each well and incubated at room temperature until color development. The β-gal activity was measured by the absorbance of the sample at […]. Data were based on triplicate wells with standard deviations calculated.

HeLa cells [4] = assay: Fluorescence-based beta-galactosidase assay of BAD-induced cell death in transfected HeLa cells; parameters: species or system human; conditions: compared to wild-type BAD
Procedure: FIG. 12(B) is a graphic representation of the results of a β-galactosidase assay. HeLa cells were co-transfected with the β-galactosidase gene and either HA-BAD (“WT”), HA-BAD S155A (“S155A”), HA-BAD S112A/S136A (“S112A/S136A”) or HA-BAD S112A/S136A/S155A (“AAA”). Transfected cells were then cultured in serum-free medium (SFM) or SFM supplemented with EGF (SFM+EGF) for 12 hours. Cell lysates were prepared and BAD-induced cell death was measured by the loss of β-galactosidase activity in a fluorescence-based assay. Fluorescence was measured at 465 nm. Results shown are the average and standard deviation of triplicate transfections (this experiment was repeated two more times with similar results). Expression levels of HA-tagged BAD and BAD mutants in transfected cell lysates were detected by anti-HA western blot analysis: HA-BAD (“WT”), HA-BAD S155A (“A”), HA-BAD S112A/S136A (“AA”), and HA-BAD S112A/S136A/S155A (“AAA”).
FIG. 12(C) is a graphic representation of the results of a β-galactosidase assay. HeLa cells were co-transfected with the β-galactosidase gene and either an empty vector (“CTL”), wild-type BAD (“WT”), the BAD S155A mutant (“S155A”) or the BAD S155D mutant (“S155D”). Cell lysates were prepared and BAD-induced cell death was measured by the loss of β-galactosidase activity in a fluorescence-based assay. Fluorescence was measured at 465 nm. Results shown are the average and standard deviation of triplicate transfections (this experiment was repeated two more times with similar results).
HeLa cells were co-transfected with the β-galactosidase gene and either wild-type BAD, BAD S155A, BAD S112A/S136A or BAD S112A/S136A/S155A. […] Cell lysates were prepared and BAD-induced cell death was measured by the loss of β-galactosidase activity in a fluorescence-based assay. […]
To measure β-gal activity, HeLa cells were plated in 12-well plates at 5×10^4 cells/well one day prior to transfection. […] Beta-gal activity was measured in extracts using a fluorogenic substrate (MUG, BIO-RAD FluorAce™ β-gal Reporter Assay, #170–3150). […]

B1: HA-BAD S112A/S134A/S136A: HA-tagged mutant of shorter murine BAD, serines corresponding to Ser112, Ser134 and Ser136 substituted with alanine (protein, UniProt Q61337 1-204, looked up, variant S112A S134A S136A)
Bcl2-associated agonist of …: MGTPKQPSLAPAHALGLRKSDPGIRSLGSDAGGRRWRPAAQSMFQIPEFEPSEQEDASATDRGLGPSLTEDQPGPYLAPGLLGSNIHQQGRAATNSHHGGAGAMETRSRHSAYPAGTEEDEGMEEELSPFRGRARAAPPNLWAAQRYGRELRRMSDEFEGSFKGLPRPKSAGTATQMRQSAGWTRIIQSWWDRNLGKGGSTPSQ
modifications: HA tag
notes: HA-tagged mutant of shorter murine BAD, serines corresponding to Ser112, Ser134 and Ser136 substituted with alanine
phosphorylation of expressed BAD mutant (lambda phosphatase-sensitive higher molecular weight band) [1]: does not eliminate the phosphorylation of BAD

B2: BAD S136A: mutant of shorter murine BAD, serine corresponding to Ser136 substituted with alanine; HA- or GST-tagged (protein, UniProt Q61337 1-204, looked up, variant S136A)
Bcl2-associated agonist of …: MGTPKQPSLAPAHALGLRKSDPGIRSLGSDAGGRRWRPAAQSMFQIPEFEPSEQEDASATDRGLGPSLTEDQPGPYLAPGLLGSNIHQQGRAATNSHHGGAGAMETRSRHSSYPAGTEEDEGMEEELSPFRGRSRAAPPNLWAAQRYGRELRRMSDEFEGSFKGLPRPKSAGTATQMRQSAGWTRIIQSWWDRNLGKGGSTPSQ
modifications: HA or GST tag
notes: mutant of shorter murine BAD, serine corresponding to Ser136 substituted with alanine; HA- or GST-tagged
band-shift (phosphorylation) of expressed BAD construct in response to L-epinephrine [2]: significant band-shift | effect of expressed BAD mutant on cellular survival / cell death (HeLa cells [3]): next greatest effect

B3: BAD S155D: BAD mutant, Ser155 replaced with aspartic acid to mimic the negatively charged phospho-Ser155 residue (protein, UniProt Q61337 1-204, looked up, variant S155D)
Bcl2-associated agonist of …: MGTPKQPSLAPAHALGLRKSDPGIRSLGSDAGGRRWRPAAQSMFQIPEFEPSEQEDASATDRGLGPSLTEDQPGPYLAPGLLGSNIHQQGRAATNSHHGGAGAMETRSRHSSYPAGTEEDEGMEEELSPFRGRSRSAPPNLWAAQRYGRELRRMDDEFEGSFKGLPRPKSAGTATQMRQSAGWTRIIQSWWDRNLGKGGSTPSQ
pro-apoptotic activity (HeLa cells [4]): no pro-apoptotic activity

— US7193044B1, “Compounds and methods for regulating apoptosis, and methods of making and screening for compounds that regulate apoptosis” (Immunogen, Inc., priority 2000, dated 2007)
